The values that follow come from patent publication US20090035308A1.

For the assay, the target named is Notch1-Fc. Description: competition ELISA: Dll4-Fc premixed with 50 ng Dll4 (E8)-AP on coated Notch1-Fc; reference Dll4-L1-Fc. In general terms: An ELISA detects its analyte on a solid surface through an enzyme-linked reagent.

B1: Dll4-L2-Fc (Fc fusion, part only; not given: linker, Fc, not shown: a dimerising Fc or GST)
chain, part: SGVFQLQLQEFINERGVLASGRPCEPGCRTFFRVCLKHFQAVVSPGPCTFGTVSTPVLGTNSFAVRDDSSGGGRNPLQLPFNFTWPGTFSLIIEAWHAPGDDLRPEALPPDALISKIAIQGSLAVGQNWLLDEQTSTLTRLRYSYRVICSDNYYGDNCSRLCKKRNDHFGHYVCQPDGNLSCLPGWTGEYCQQPICLSGCHEQNGYCSKPAECLCRPGWQGRLCNECIPHNGCRHGTCSTPWQCTCDEGWGGLFCDQDLNYCTHHSPCKNGATCSNSGQRSYTCTCRPGYTGVDCELELSECDSNPCRNGGSCKDQEDGYHCLCPPGYYGLHCEHSTLSCADSPCFNGGSCRERNQGANYACECPPNFTGSNCEKKVDRCTSNPCANGGQCLNRGP
For B1, the fold difference between L1 and L2 fusion proteins is 3 fold.
